# Where a chain is given by its changes, count along the chain named.
# T1: human EphB1 (Homo sapiens, UniProt P54762)
# T1 construct: a protein of the extracellular region of each human Eph receptor fused with the SEAP protein and the His tag; made in house; host or cells: Expi293F cells (culture supernatant)
# T1 sequence (P54762 18-540 limits assumed): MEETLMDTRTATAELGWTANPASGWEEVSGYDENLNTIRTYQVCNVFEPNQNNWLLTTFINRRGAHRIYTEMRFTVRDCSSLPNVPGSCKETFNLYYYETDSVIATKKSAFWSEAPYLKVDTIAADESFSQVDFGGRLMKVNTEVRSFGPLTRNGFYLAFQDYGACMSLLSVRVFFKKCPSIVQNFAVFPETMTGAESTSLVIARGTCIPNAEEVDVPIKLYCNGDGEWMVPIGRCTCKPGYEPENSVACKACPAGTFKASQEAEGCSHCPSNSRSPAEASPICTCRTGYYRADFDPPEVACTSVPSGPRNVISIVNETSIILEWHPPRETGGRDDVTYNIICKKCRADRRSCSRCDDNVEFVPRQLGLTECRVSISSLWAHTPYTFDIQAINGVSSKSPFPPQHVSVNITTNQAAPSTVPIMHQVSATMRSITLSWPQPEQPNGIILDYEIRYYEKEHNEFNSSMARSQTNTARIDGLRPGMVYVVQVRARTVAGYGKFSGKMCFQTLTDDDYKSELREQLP
# T2: human EphA6 (Homo sapiens, UniProt Q9UF33)
# T2 construct: a protein of the extracellular region of each human Eph receptor fused with the SEAP protein and the His tag; made in house; host or cells: Expi293F cells (culture supernatant)
# T2 sequence (Q9UF33 23-550 limits assumed): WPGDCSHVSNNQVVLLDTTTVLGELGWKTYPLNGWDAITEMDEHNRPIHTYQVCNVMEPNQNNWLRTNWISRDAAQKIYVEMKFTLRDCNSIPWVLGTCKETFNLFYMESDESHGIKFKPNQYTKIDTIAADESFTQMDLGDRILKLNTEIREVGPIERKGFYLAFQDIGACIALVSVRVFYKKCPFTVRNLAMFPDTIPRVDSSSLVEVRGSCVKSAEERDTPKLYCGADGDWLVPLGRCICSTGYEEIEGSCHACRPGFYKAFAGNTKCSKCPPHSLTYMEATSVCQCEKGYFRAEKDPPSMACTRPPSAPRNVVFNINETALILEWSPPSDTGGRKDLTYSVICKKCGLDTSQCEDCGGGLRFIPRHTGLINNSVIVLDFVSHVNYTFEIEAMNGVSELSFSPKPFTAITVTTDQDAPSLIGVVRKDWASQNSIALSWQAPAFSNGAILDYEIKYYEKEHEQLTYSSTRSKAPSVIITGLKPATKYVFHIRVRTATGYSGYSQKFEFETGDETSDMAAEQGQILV
# B1: 69 (antibody, V domains shown)
# VH: QIQLVQSGSELKKPGASVKVSCKASGYTFTDYSMHWVRQAPGQGLKWMGWINTETGEPTYADDFKGRFVFSLDTSVSTAYLQISSLKAEDTAVYYCARIPLYYYGSRYWYFDVWGQGTTVTVSS
# VL: DIQMTQSPSSLSASVGDRVTITCRASENIYRNLAWYQQKPGKAPKLLVYAATNLADGVPSRFSGSGSGTDYTLTISSLQPEDFATYYCQHFWGTPWTFGQGTKVEIK
# modifications: synthetic humanized antibody heavy chain variable region sequence; synthetic humanized antibody light chain variable region sequence
# B2: 84 (antibody, V domains shown)
# VL: B1 VL with V48L, P80S
# VH: B1 VH with I2V, K46E
# modifications: constant regions without entry; synthetic humanized antibody light chain variable region sequence; synthetic humanized antibody heavy chain variable region sequence
# B3: 83 (antibody, V domains shown)
# VL: B1 VL with V48L, P80S
# VH: B1 VH with D62Q, D63G, K65T
# modifications: constant regions without entry; synthetic humanized antibody light chain variable region sequence; synthetic humanized antibody heavy chain variable region sequence
# B4: 82 (antibody, V domains shown)
# VL: B1 VL with V48L, P80S
# VH: B1 VH with I2V, D62Q, D63G, K65T
# modifications: constant regions without entry; synthetic humanized antibody light chain variable region sequence; synthetic humanized antibody heavy chain variable region sequence
# B5: 86 (antibody, V domains shown)
# VL: B1 VL with V48L, P80S
# VH: B1 VH
# modifications: constant regions without entry; synthetic humanized antibody light chain variable region sequence; synthetic humanized antibody heavy chain variable region sequence
# B6: 85 (antibody, V domains shown)
# VL: B1 VL with V48L, P80S
# VH: B1 VH with I2V
# modifications: constant regions without entry; synthetic humanized antibody light chain variable region sequence; synthetic humanized antibody heavy chain variable region sequence
# B7: 87 (antibody, V domains shown)
# VL: B1 VL with K45Q, V48L
# VH: B1 VH with I2V, K46E, D62Q, D63G, K65T
# modifications: constant regions without entry; synthetic humanized antibody light chain variable region sequence; synthetic humanized antibody heavy chain variable region sequence
# B8: 81 (antibody, V domains shown)
# VL: B1 VL with V48L, P80S
# VH: B1 VH with I2V, K46E, D62Q, D63G, K65T
# modifications: constant regions without entry; synthetic humanized antibody light chain variable region sequence; synthetic humanized antibody heavy chain variable region sequence
# Biological target: T3, human EphA4 (binding to human Ephrin A5) (Homo sapiens, UniProt P54764)
# T3 construct: made in house; not restated for the human SEAP-His protein
# Assay: Human EphA4-human ligand binding inhibition ELISA of humanized antibodies (biotinylated Ephrin A5-Fc)
# Conditions: biotinylated human Ephrin A5-Fc 0.7 nM
# Experimental: Each anti-EphA4 monoclonal humanized antibody obtained in Example 16 was evaluated for its inhibitory activity against the binding between human EphA4 and its human ligand according to the following steps. Each well of a 96-well plate (Nunc) was coated with an anti-alkaline phosphatase antibody (Thermo Fisher Scientific). After incubation overnight at 4° C., each well was blocked with 1% BlockAce (DS Pharma Biomedical) at room temperature for 1 hour. After washing with 0.05% Tween 20/PBS (Thermo Fisher Scientific) three times, the human EphA4 extracellular region-SEAP-His protein obtained by the method of Example 2 was added (final concentration: 10 nM) to each well and incubated at room temperature for 1 hour. After washing three times, a ligand and each serially diluted humanized antibody of antibody A (0, 0.003, 0.01, 0.03, 0.1, 0.3, 1, 3, 10, 30, 100, 300, 1000, and 3000 nM) were added to each well. The ligand used was biotinylated human Ephrin A5-Fc chimera (R&D Systems, final concentration: 0.7 nM). After incubation at room temperature for 1 hour and subsequent washing three times, horseradish peroxidase-labeled streptavidin (GE Healthcare) was added thereto and incubated at room temperature for 1 hour. After washing three times, a TMBZ (3,3′,5,5′-tetramethylbenzidine, Sigma-Aldrich) solution was added to each well and incubated at room temperature for 2 minutes. An equal amount of a reaction stopping solution (1N H2SO4, Wako Pure Chemical Industries) was added to each well. The absorbance at 450 nm was read using a microplate reader (PerkinElmer).
# T3 sequence (P54764 20-547): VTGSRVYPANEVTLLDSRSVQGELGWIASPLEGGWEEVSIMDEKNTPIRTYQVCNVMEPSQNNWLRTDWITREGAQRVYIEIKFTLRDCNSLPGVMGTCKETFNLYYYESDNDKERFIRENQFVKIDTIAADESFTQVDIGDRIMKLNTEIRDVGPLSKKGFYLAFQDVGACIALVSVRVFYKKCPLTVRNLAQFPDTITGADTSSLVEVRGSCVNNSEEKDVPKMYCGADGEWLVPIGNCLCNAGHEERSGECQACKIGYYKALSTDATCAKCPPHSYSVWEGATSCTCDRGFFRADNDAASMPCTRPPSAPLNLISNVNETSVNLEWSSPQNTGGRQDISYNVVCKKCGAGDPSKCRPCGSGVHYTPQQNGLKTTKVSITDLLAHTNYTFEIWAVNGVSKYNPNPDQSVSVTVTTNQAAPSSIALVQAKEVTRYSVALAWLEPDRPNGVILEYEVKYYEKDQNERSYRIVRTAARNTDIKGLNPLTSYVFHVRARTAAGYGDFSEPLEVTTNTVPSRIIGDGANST
row,Molecule,IC50 [nM]
1,B1,3.1
2,B2,4.6
3,B3,3.7
4,B4,4.1
5,B5,4
6,B6,4
7,B7,3
8,B8,4

# Biological target: T1, human EphB1
# Assay: Selectivity ELISA of humanized antibodies for human Eph receptor
# Type: binding
# Conditions: coated protein 1 nM
# Text: (§1) According to the method described in Example 7, a DNA sequence encoding the signal sequence and the extracellular region of each human Eph receptor (EphA1, EphA2, EphA3, EphA4, EphA5, EphA6, EphA7, EphA8, EphA10, EphB1, EphB2, EphB3, EphB4, and EphB6) was amplified by RT-PCR using tissue-derived total RNA and cloned into a pENTR1A vector (Invitrogen/Life Technologies) having a DNA sequence encoding SEAP protein and histidine tag. Next, the DNA sequence encoding the signal sequence and the extracellular region of each human Eph receptor, SEAP protein, and histidine tag was transferred to a pcDNA3.1_rfcB vector through LR reaction using Gateway System (Invitrogen/Life Technologies) to construct a vector for the expression of a protein of the extracellular region of each human Eph receptor fused with the SEAP protein and the His tag (referred to as “Eph receptor extracellular region-SEAP-His protein”) (this vector is referred to as “Eph receptor extracellular region-SEAP-His protein expression vector”).
# (§2) Next, each human Eph receptor extracellular region-SEAP-His protein expression vector was transferred to Expi293F cells (Gibco/Thermo Fisher Scientific) using Expi293 expression system (Gibco/Thermo Fisher Scientific). After incubation (5% CO2, 37° C.) for 5 days, the culture supernatant was recovered and centrifuged at 1500 rpm at room temperature for 5 minutes. The centrifugation supernatant was filtered through a 0.45-μm filter (Merck Millipore).
# (§3) Each anti-EphA4 monoclonal humanized antibody obtained in Example 16 was evaluated for its binding activity against each human Eph receptor according to the following steps.
# (§4) Each well of a 96-well plate (Nunc) was coated with a rabbit anti-6-His antibody (Bethyl Laboratories). Each well was […] After washing with 0.05% Tween 20/PBS (Nacalai Tesque) three times, the SEAP-His protein of human EphA1, EphA2, EphA3, EphA4, EphA5, EphA6, EphA7, EphA8, EphA10, EphB1, EphB2, EphB3, EphB4, or EphB6 was added (final concentration: 1 nM) to each well and incubated at room temperature for 1 hour. After washing three times, the humanized antibody was added to each well and incubated at room temperature for 1 hour. After washing three times, a horseradish peroxidase-labeled donkey […] IgG antibody (Jackson ImmunoResearch Laboratories) was added thereto and incubated at room temperature for 1 hour. After washing three times, TMB Microwell Peroxidase Substrate System (Kirkegaard & Perry Laboratories (KPL)) was added to each well. After confirmation of moderate color development, an equal amount of a reaction stopping solution (1N H2SO4, Wako Pure Chemical Industries) was added to each well. The absorbance at 450 nm was read using a microplate reader (Thermo Fisher Scientific).
row,Molecule,"hEphB1-SEAP-: absorbance at 450 nm, percentage with respect to hEphA4-SEAP-His as 100% [%]"
1,B1,5.6
2,B2,5.2
3,B3,5.6
4,B4,5.4
5,B5,5.7
6,B6,5.0
7,B7,5.3
8,B8,4.9

# Biological target: T2, human EphA6
# Assay: as above
# Type: binding
# Conditions: coated protein 1 nM
# Text: as §1, §2, §3, §4
row,Molecule,"hEphA6-SEAP-: absorbance at 450 nm, percentage with respect to hEphA4-SEAP-His as 100% [%]"
1,B1,9.5
2,B2,6.0
3,B3,7.5
4,B4,8.7
5,B5,8.6
6,B6,6.2
7,B7,6.4
8,B8,8.8
